Here are results for six molecules from patent publication US20150165065A1 (AVIDBIOTICS, published 2015).

Residue numbers refer to the chain shown, from its start. Like-named read-outs stand apart in the source and are kept apart here.

Common to all, as to test: phage ELISA, coated integrin, anti-M13-HRP
(ELISA stands for enzyme-linked immunosorbent assay.)

In experiment [1] the target is T1, integrin αVβ3 (UniProt P06756 31-992; P05106 27-718).
T1 construct: Coated on the ELISA plate
The protocol: (§1) The ELISA assays of the integrin target-binding of M13 phages displaying α3 domains with binding peptide inserts grafted into more than one loop were performed as follows. After the respective integrins were adhered to the bottoms of the wells of the ELISA plate, the wells were washed and blocked. Each sample (100 μl) of phage preparation was added to wells containing αVβ3 or αVβ5, incubated and washed. The phages captured by the integrins were detected by HRP-conjugated antibody to the M13 phage coat developed with Ultra TMB-ELISA substrate and the optical densities read.

The target in experiment [2] is T2, integrin αVβ5 (UniProt P06756 31-992; P18084 24-719).
T2 construct: Coated on the ELISA plate
The protocol: as §1

The target in experiment [3] is T1, integrin αVβ3. How it is done:
(§2) The phage vectors were independently transformed into NEBαF′tet competent E. coli cells. Phages produced by the transformed cells were tittered and their concentrations adjusted by dilution to 10¹³ per ml. The ability of the soluble MICA molecules in each of the phage preparations was assayed by an ELISA using the intended target proteins, integrin αVβ3 or αVβ5, as capture agents on the ELISA plate. After the respective integrins were adhered to the bottoms of the wells of the ELISA plate, the wells were washed and blocked, as well known in the field. Each sample (100 μl) of phage preparation was added to wells containing αVβ3 or αVβ5, incubated and washed. The phages captured by the integrins were detected by HRP-conjugated antibody to the M13 phage coat developed with Ultra TMB-ELISA substrate and the optical densities read.
The source holds these as a separate data set.

For experiment [4], the target named is T2, integrin αVβ5. The protocol:
as §2
This is another data set of the same source.

T2 sequence (P06756 31-992, chain 1 of 2): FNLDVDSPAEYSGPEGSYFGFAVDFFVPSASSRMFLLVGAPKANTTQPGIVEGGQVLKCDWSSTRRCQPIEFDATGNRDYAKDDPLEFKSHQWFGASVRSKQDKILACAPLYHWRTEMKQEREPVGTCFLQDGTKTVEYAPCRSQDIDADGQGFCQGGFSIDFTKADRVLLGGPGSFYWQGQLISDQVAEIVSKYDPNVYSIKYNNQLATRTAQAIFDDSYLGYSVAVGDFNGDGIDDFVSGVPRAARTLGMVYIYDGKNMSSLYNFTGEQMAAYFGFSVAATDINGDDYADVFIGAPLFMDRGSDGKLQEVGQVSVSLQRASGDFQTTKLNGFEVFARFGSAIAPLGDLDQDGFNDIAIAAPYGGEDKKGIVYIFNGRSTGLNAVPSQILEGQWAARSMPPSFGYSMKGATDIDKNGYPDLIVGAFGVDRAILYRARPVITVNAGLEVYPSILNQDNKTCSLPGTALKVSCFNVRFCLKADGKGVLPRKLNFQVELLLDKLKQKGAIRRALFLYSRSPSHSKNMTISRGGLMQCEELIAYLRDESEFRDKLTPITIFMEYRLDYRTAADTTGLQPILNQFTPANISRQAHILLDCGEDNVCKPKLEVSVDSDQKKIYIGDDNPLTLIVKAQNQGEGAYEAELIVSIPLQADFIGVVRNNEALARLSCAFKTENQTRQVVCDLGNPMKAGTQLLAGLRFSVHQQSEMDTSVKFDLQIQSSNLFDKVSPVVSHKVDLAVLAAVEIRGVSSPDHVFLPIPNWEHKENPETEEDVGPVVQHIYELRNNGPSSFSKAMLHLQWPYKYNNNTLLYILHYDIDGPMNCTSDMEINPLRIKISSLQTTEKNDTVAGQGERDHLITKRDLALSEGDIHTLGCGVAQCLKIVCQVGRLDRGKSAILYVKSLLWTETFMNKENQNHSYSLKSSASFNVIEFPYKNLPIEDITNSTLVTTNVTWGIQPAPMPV
T2 sequence (P18084 24-719, chain 2 of 2): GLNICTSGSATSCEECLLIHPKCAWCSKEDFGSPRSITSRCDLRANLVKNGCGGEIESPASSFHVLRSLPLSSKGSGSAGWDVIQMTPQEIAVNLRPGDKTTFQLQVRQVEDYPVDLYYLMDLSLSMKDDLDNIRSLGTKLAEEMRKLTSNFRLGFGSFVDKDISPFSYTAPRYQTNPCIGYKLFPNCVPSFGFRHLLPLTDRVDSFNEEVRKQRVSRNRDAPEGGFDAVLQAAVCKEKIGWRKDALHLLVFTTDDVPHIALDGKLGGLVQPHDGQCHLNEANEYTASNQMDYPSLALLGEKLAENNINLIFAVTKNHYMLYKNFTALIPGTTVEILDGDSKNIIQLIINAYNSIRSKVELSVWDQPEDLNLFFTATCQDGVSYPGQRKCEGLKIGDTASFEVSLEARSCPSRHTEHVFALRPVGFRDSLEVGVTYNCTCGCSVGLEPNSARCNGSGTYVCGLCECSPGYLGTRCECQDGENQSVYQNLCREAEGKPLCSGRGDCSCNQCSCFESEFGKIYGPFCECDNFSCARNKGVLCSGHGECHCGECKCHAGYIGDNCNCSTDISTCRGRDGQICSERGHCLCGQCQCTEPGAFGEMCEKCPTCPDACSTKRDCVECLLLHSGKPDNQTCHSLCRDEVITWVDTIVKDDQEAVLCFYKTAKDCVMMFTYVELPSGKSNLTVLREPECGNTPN
T1 sequence (P06756 31-992, chain 1 of 2): as the sequence (P06756 31-992, chain 1 of 2) above
T1 sequence (P05106 27-718, chain 2 of 2): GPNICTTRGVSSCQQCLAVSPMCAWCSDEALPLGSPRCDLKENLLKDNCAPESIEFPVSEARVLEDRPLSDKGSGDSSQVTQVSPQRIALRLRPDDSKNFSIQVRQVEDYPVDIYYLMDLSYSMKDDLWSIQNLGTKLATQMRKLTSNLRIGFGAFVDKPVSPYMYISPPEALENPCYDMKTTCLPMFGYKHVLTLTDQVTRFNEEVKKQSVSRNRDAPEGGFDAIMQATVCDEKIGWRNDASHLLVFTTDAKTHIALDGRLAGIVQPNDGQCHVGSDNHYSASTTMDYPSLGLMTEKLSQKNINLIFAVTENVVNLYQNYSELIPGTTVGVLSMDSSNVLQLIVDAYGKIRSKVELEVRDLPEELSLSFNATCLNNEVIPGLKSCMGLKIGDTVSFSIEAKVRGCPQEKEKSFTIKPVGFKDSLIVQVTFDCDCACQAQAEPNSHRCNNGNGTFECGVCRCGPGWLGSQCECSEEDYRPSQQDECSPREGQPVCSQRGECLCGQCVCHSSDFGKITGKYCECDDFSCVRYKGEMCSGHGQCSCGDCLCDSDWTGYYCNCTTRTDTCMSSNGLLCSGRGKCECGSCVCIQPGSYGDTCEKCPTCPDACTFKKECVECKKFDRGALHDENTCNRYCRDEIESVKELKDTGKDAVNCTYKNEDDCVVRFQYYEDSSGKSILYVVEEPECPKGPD

B1: M13 phage pKK136 displaying MICA α3 domain with loop 1 insert 5.1sp and loop 3 insert 3.2sp (designed binder)
chain: TVPPMVNVTSGGSGGGSVTRGDTFTQSSGGSGGGVTCRASGFYPWNITLSWRQDGVSLSHDTQQWGDVLPDGNGTYQTWVATRISGGSGGGSTSRGDHPRTQSGGSGGGCYMEHSGNHSTHPVPSGK
notes: also called 1-5.1sp/3-3.2sp; not shown: C-terminal portion of M13 gene III protein, fused at codon position 198
In turn, B1 came in with a αvβ3 signal in experiment [1] of 2.46 OD. This molecule also had a αvβ5 signal in experiment [2] of 4.28 OD.

B2: M13 phage pKK139 displaying MICA α3 domain with loop 1 insert 5.1sp and loop 3 insert 5.1spNH (designed binder)
chain: B1 chain with T93V, S94T, H98T, P99F, R100T, T101Q, Q102S
notes: also called 1-5.1sp/3-5.1spNH; not shown: C-terminal portion of M13 gene III protein, fused at codon position 198
B2 came in with a αvβ3 signal in experiment [1] of 2.48 OD. Besides, in experiment [2], the αvβ5 signal was 5.36 OD.

B3: M13 phage pKK138 displaying MICA α3 domain with loop 1 insert 5.1sp and loop 3 insert 5.3sp (designed binder)
chain: B1 chain with T93H, S94L, R95A, G96R, D97G, H98D, P99D, R100L, Q102Y
notes: also called 1-5.1sp/3-5.3sp; not shown: C-terminal portion of M13 gene III protein, fused at codon position 198
As for B3, the αvβ3 signal in experiment [1] was determined as 0.886 OD. The αvβ5 signal in experiment [2] was 2.75 OD.

B4: M13 phage pKK102 displaying MICA α3 domain with loop 1 insert 5.1sp (designed binder)
chain: TVPPMVNVTSGGSGGGSVTRGDTFTQSSGGSGGGVTCRASGFYPWNITLSWRQDGVSLSHDTQQWGDVLPDGNGTYQTWVATRICQGEEQRFTCYMEHSGNHSTHPVPSGK
notes: also called 1-5.1sp; not shown: C-terminal portion of M13 gene III protein, fused at codon position 198
Regarding B4, the αvβ3 signal in experiment [3] was determined as 1.02 OD; in experiment [1], 1.45 OD. In addition, the αvβ5 signal amounted to 0.771 OD in experiment [4] and 1.5 OD in experiment [2].

B5: M13 phage pKK103 displaying MICA α3 domain with loop 1 insert 5.3sp (designed binder)
chain: B4 chain with V18H, T19L, R20A, G21R, D22G, T23D, F24D, T25L, Q26T, S27Y
notes: also called 1-5.3sp; not shown: C-terminal portion of M13 gene III protein, fused at codon position 198
On to B5, for which the αvβ3 signal in experiment [3] amounted to 0.688 OD; in experiment [1], 0.587 OD. Besides, the figures for the αvβ5 signal in experiment [4] and in experiment [2] were 0.491 OD and 0.814 OD, respectively.

B6: M13 phage pKK106 displaying wild type MICA α3 domain fused to pIII (other)
chain: TVPPMVNVTRSEASEGNITVTCRASGFYPWNITLSWRQDGVSLSHDTQQWGDVLPDGNGTYQTWVATRICQGEEQRFTCYMEHSGNHSTHPVPSGK
notes: also called WT; not shown: C-terminal portion of M13 gene III protein, fused at codon position 198
For B6, the αvβ3 signal in experiment [3] and in experiment [1] was 0 OD throughout. Also, the αvβ5 signal in experiment [4] and in experiment [2] was 0 OD throughout.
